For the assay, the target named is heat shock protein 60 (Hsp60), surface-expressed on Caco-2 cells (human (endogenous in Caco-2)) (UniProt P10809).
UniProt P10809, sequence (P10809 27-573): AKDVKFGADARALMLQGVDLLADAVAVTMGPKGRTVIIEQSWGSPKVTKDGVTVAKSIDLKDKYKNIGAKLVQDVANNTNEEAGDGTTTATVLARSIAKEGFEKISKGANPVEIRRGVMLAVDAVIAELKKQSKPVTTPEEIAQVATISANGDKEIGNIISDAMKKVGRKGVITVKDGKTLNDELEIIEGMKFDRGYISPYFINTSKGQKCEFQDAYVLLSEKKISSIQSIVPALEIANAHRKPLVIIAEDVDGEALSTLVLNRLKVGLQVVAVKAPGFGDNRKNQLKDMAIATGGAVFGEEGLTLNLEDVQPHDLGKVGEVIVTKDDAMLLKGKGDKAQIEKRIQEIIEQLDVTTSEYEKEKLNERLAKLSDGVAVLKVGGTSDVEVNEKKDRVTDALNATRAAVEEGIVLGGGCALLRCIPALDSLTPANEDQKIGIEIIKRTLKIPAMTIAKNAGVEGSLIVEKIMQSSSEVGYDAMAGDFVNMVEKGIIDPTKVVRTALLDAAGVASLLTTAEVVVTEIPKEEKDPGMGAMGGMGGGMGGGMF

Take “Listeria adhesion protein (LAP) from Listeria monocytogenes F4244, expressed on the surface of Lactobacillus casei (strain LbcLAP^Lm) (natural protein)”: the adhesion of the BLP strain (MOE 10, 1 h) to Hsp60^+ Caco-2 cells (Hsp60 overexpressed), relative to LbcWT was 9 fold and the adhesion of the BLP strain (MOE 10, 1 h) to Hsp60^Vec Caco-2 cells (basal Hsp60), relative to LbcWT is 4 fold.

B1: Listeria adhesion protein (LAP) from Listeria innocua F4248, expressed on the surface of Lactobacillus casei (strain LbcLAP^Lin) (natural protein)
chain: MAIKENAAQEVLEVQKVIDRLADNGQKALKAFESYNQEQVDNIVHAMALAGLDQHMPLAKLAVEETGRGLYEDKCIKNIFATEYIWNNIKNNKTVGVINEDTQTGVIEIAEPVGVVAGVTPVTNPTSTTLFKAIIAIKTRNPIIFAFHPSAQRCSSEAAKVVYDAAVAAGAPEHCIQWVEKPSLEATKQLMNHDKVALVLATGGAGMVKSAYSTGKPALGVGPGNVPAYIDKTAKIKRSVNDIILSKSFDQGMICASEQAVIVDKEVAKEVKAEMEANKCYFVKGAEFKKLESYVINPEKGTLNPDVVGKSPAWIANQAGFKVPEDTKILVAEIKGVGDKYPLSHEKLSPVLAFIEAANQAEAFDRCEEMLVYGGLGHSAVIHSTDKEVQKAFGIRMKACRIIVNAPSAQGGIGDIYNGFIPSLTLGCGSYGKNSVSQNVSATNLLNVKRIADRRNNMQWFKLPPKIFFEKYSTQYLQKMEGVERVFIVTDPGMVQFKYVDVVIEHLKKRGNDVAYQVFADVEPDPSDVTVYKGAELMKDFKPDTIIALGGGSAMDAAKGMWLFYEHPEASFFGLKQKFLDIRKRTFKYPKLGGKAKFVAIPTTSGTGSEVTPFAVITDKENNIKYPLADYELTPDVAIVDAQYVTTVPAHITADTGMDVLTHAIESYVSVMASDYTRGLSIRAIELVFENLRESVLTGDPDAREKMHNASALAGMAFANAFLGINHSLAHKIGPEFHIPHGRANAILMPHVIRYNALKPKKHALFPRYESFRADEDYARISRIIGFPAATTEEGVKSLVDEIIKLGKDVGIDMSLKGQNVAKKDLDAVVDTLADRAFMDQCTTANPKQPLVSELKEIYLEAYKGV
In turn, B1 registered an adhesion of the BLP strain (MOE 10, 1 h) to Hsp60^+ Caco-2 cells (Hsp60 overexpressed), relative to LbcWT of 9 fold and an adhesion of the BLP strain (MOE 10, 1 h) to Hsp60^Vec Caco-2 cells (basal Hsp60), relative to LbcWT of 4 fold.

(Values after article PMC7732855.)
